Sequences and labels used below:
B1: H1_L1.37 (antibody, V domains shown)
VH: EVQLVESGGGLVQPGGSLRLSCAASGFTFSSFGMHWVRQAPGKGLEWVSYISSGSSIIYYADSVKGRFTISRDNAKNSLYLQMNSLRAEDTAVYYCARGGRLVWSPDYWGQGTLVTVSS
VL: DIVMTQSPDSLAVSLGERATINCKSSQSLLNSGNFKNYLTWYQQKPGQPPKLLIYWASTRESGVPDRFTGSGSGTDFTLTISSLQAEDVAVYYCQNDYSYPFTFGSGTKLEIKR
notes: also called VL-Q35F; Kabat 29
B2: H1_L1.46 (antibody, V domains shown)
VH: EVQLVESGGGLVQPGGSLRLSCAASGFTFSSFGMHWVRQAPGKGLEWVSYISSGSSIIYYADSVKGRFTISRDNAKNSLYLQMNSLRAEDTAVYYCARGGRLVWSPDYWGQGTLVTVSS
VL: DIVMTQSPDSLAVSLGERATINCKSSQSLLNSGNQINYLTWYQQKPGQPPKLLIYWASTRESGVPDRFTGSGSGTDFTLTISSLQAEDVAVYYCQNDYSYPFTFGSGTKLEIKR
notes: also called VL-K36I; Kabat 30
B3: H1_L1.48 (antibody, V domains shown)
VH: EVQLVESGGGLVQPGGSLRLSCAASGFTFSSFGMHWVRQAPGKGLEWVSYISSGSSIIYYADSVKGRFTISRDNAKNSLYLQMNSLRAEDTAVYYCARGGRLVWSPDYWGQGTLVTVSS
VL: DIVMTQSPDSLAVSLGERATINCKSSQSLLNSGNQKHYLTWYQQKPGQPPKLLIYWASTRESGVPDRFTGSGSGTDFTLTISSLQAEDVAVYYCQNDYSYPFTFGSGTKLEIKR
notes: also called VL-N37H; Kabat 31
B4: H1_L1.39 (antibody, V domains shown)
VH: EVQLVESGGGLVQPGGSLRLSCAASGFTFSSFGMHWVRQAPGKGLEWVSYISSGSSIIYYADSVKGRFTISRDNAKNSLYLQMNSLRAEDTAVYYCARGGRLVWSPDYWGQGTLVTVSS
VL: DIVMTQSPDSLAVSLGERATINCKSSQSLLNSGNQRNYLTWYQQKPGQPPKLLIYWASTRESGVPDRFTGSGSGTDFTLTISSLQAEDVAVYYCQNDYSYPFTFGSGTKLEIKR
notes: also called VL-K36R; Kabat 30
B5: H1_L1.49 (antibody, V domains shown)
VH: EVQLVESGGGLVQPGGSLRLSCAASGFTFSSFGMHWVRQAPGKGLEWVSYISSGSSIIYYADSVKGRFTISRDNAKNSLYLQMNSLRAEDTAVYYCARGGRLVWSPDYWGQGTLVTVSS
VL: DIVMTQSPDSLAVSLGERATINCKSSQSLLNSGNQKEYLTWYQQKPGQPPKLLIYWASTRESGVPDRFTGSGSGTDFTLTISSLQAEDVAVYYCQNDYSYPFTFGSGTKLEIKR
notes: also called VL-N37E; Kabat 31
B6: H1_L1.43 (antibody, V domains shown)
VH: EVQLVESGGGLVQPGGSLRLSCAASGFTFSSFGMHWVRQAPGKGLEWVSYISSGSSIIYYADSVKGRFTISRDNAKNSLYLQMNSLRAEDTAVYYCARGGRLVWSPDYWGQGTLVTVSS
VL: DIVMTQSPDSLAVSLGERATINCKSSQSLLNSGNQANYLTWYQQKPGQPPKLLIYWASTRESGVPDRFTGSGSGTDFTLTISSLQAEDVAVYYCQNDYSYPFTFGSGTKLEIKR
notes: also called VL-K36A; Kabat 30
B7: H1_L1.47 (antibody, V domains shown)
VH: EVQLVESGGGLVQPGGSLRLSCAASGFTFSSFGMHWVRQAPGKGLEWVSYISSGSSIIYYADSVKGRFTISRDNAKNSLYLQMNSLRAEDTAVYYCARGGRLVWSPDYWGQGTLVTVSS
VL: DIVMTQSPDSLAVSLGERATINCKSSQSLLNSGNQKDYLTWYQQKPGQPPKLLIYWASTRESGVPDRFTGSGSGTDFTLTISSLQAEDVAVYYCQNDYSYPFTFGSGTKLEIKR
notes: also called VL-N37D; Kabat 31
B8: H1_L1.40 (antibody, V domains shown)
VH: EVQLVESGGGLVQPGGSLRLSCAASGFTFSSFGMHWVRQAPGKGLEWVSYISSGSSIIYYADSVKGRFTISRDNAKNSLYLQMNSLRAEDTAVYYCARGGRLVWSPDYWGQGTLVTVSS
VL: DIVMTQSPDSLAVSLGERATINCKSSQSLLNSGNQENYLTWYQQKPGQPPKLLIYWASTRESGVPDRFTGSGSGTDFTLTISSLQAEDVAVYYCQNDYSYPFTFGSGTKLEIKR
notes: also called VL-K36E; Kabat 30
B9: H1_L1.38 (antibody, V domains shown)
VH: EVQLVESGGGLVQPGGSLRLSCAASGFTFSSFGMHWVRQAPGKGLEWVSYISSGSSIIYYADSVKGRFTISRDNAKNSLYLQMNSLRAEDTAVYYCARGGRLVWSPDYWGQGTLVTVSS
VL: DIVMTQSPDSLAVSLGERATINCKSSQSLLNSGNIKNYLTWYQQKPGQPPKLLIYWASTRESGVPDRFTGSGSGTDFTLTISSLQAEDVAVYYCQNDYSYPFTFGSGTKLEIKR
notes: also called VL-Q35I; Kabat 29
B10: H1_L1.45 (antibody, human IgG1, kappa, V domains shown)
VH: EVQLVESGGGLVQPGGSLRLSCAASGFTFSSFGMHWVRQAPGKGLEWVSYISSGSSIIYYADSVKGRFTISRDNAKNSLYLQMNSLRAEDTAVYYCARGGRLVWSPDYWGQGTLVTVSS
VL: DIVMTQSPDSLAVSLGERATINCKSSQSLLNSGNQYNYLTWYQQKPGQPPKLLIYWASTRESGVPDRFTGSGSGTDFTLTISSLQAEDVAVYYCQNDYSYPFTFGSGTKLEIKR
notes: also called VL-K36Y; Kabat 30
B11: H1_L1.41 (antibody, V domains shown)
VH: EVQLVESGGGLVQPGGSLRLSCAASGFTFSSFGMHWVRQAPGKGLEWVSYISSGSSIIYYADSVKGRFTISRDNAKNSLYLQMNSLRAEDTAVYYCARGGRLVWSPDYWGQGTLVTVSS
VL: DIVMTQSPDSLAVSLGERATINCKSSQSLLNSGNQHNYLTWYQQKPGQPPKLLIYWASTRESGVPDRFTGSGSGTDFTLTISSLQAEDVAVYYCQNDYSYPFTFGSGTKLEIKR
notes: also called VL-K36H; Kabat 30
B12: H1_L1.50 (antibody, V domains shown)
VH: EVQLVESGGGLVQPGGSLRLSCAASGFTFSSFGMHWVRQAPGKGLEWVSYISSGSSIIYYADSVKGRFTISRDNAKNSLYLQMNSLRAEDTAVYYCARGGRLVWSPDYWGQGTLVTVSS
VL: DIVMTQSPDSLAVSLGERATINCKSSQSLLNSGNQKSYLTWYQQKPGQPPKLLIYWASTRESGVPDRFTGSGSGTDFTLTISSLQAEDVAVYYCQNDYSYPFTFGSGTKLEIKR
notes: also called VL-N37S; Kabat 31
B13: H1_L1.42 (antibody, V domains shown)
VH: EVQLVESGGGLVQPGGSLRLSCAASGFTFSSFGMHWVRQAPGKGLEWVSYISSGSSIIYYADSVKGRFTISRDNAKNSLYLQMNSLRAEDTAVYYCARGGRLVWSPDYWGQGTLVTVSS
VL: DIVMTQSPDSLAVSLGERATINCKSSQSLLNSGNQDNYLTWYQQKPGQPPKLLIYWASTRESGVPDRFTGSGSGTDFTLTISSLQAEDVAVYYCQNDYSYPFTFGSGTKLEIKR
notes: also called VL-K36D; Kabat 30
B14: H1_L1.44 (antibody, V domains shown)
VH: EVQLVESGGGLVQPGGSLRLSCAASGFTFSSFGMHWVRQAPGKGLEWVSYISSGSSIIYYADSVKGRFTISRDNAKNSLYLQMNSLRAEDTAVYYCARGGRLVWSPDYWGQGTLVTVSS
VL: DIVMTQSPDSLAVSLGERATINCKSSQSLLNSGNQGNYLTWYQQKPGQPPKLLIYWASTRESGVPDRFTGSGSGTDFTLTISSLQAEDVAVYYCQNDYSYPFTFGSGTKLEIKR
notes: also called VL-K36G; Kabat 30
B15: H1_L1.66 (antibody, V domains shown)
VH: EVQLVESGGGLVQPGGSLRLSCAASGFTFSSFGMHWVRQAPGKGLEWVSYISSGSSIIYYADSVKGRFTISRDNAKNSLYLQMNSLRAEDTAVYYCARGGRLVWSPDYWGQGTLVTVSS
VL: DIVMTQSPDSLAVSLGERATINCKSSQSLLNSGNQKNYLTWYQQKPGQPPKLLIYFASTRESGVPDRFTGSGSGTDFTLTISSLQAEDVAVYYCQNDYSYPFTFGSGTKLEIKR
notes: also called VL-W56F; Kabat 50
B16: H1_L1.67 (antibody, V domains shown)
VH: EVQLVESGGGLVQPGGSLRLSCAASGFTFSSFGMHWVRQAPGKGLEWVSYISSGSSIIYYADSVKGRFTISRDNAKNSLYLQMNSLRAEDTAVYYCARGGRLVWSPDYWGQGTLVTVSS
VL: DIVMTQSPDSLAVSLGERATINCKSSQSLLNSGNQKNYLTWYQQKPGQPPKLLIYLASTRESGVPDRFTGSGSGTDFTLTISSLQAEDVAVYYCQNDYSYPFTFGSGTKLEIKR
notes: also called VL-W56L; Kabat 50
B17: H1_L1.65 (antibody, V domains shown)
VH: EVQLVESGGGLVQPGGSLRLSCAASGFTFSSFGMHWVRQAPGKGLEWVSYISSGSSIIYYADSVKGRFTISRDNAKNSLYLQMNSLRAEDTAVYYCARGGRLVWSPDYWGQGTLVTVSS
VL: DIVMTQSPDSLAVSLGERATINCKSSQSLLNSGNQKNYLAWYQQKPGQPPKLLIYWASTRESGVPDRFTGSGSGTDFTLTISSLQAEDVAVYYCQNDYSYPFTFGSGTKLEIKR
notes: also called VL-T40A; Kabat 34
B18: H1_L1.68 (antibody, V domains shown)
VH: EVQLVESGGGLVQPGGSLRLSCAASGFTFSSFGMHWVRQAPGKGLEWVSYISSGSSIIYYADSVKGRFTISRDNAKNSLYLQMNSLRAEDTAVYYCARGGRLVWSPDYWGQGTLVTVSS
VL: DIVMTQSPDSLAVSLGERATINCKSSQSLLNSGNQKNYLTWYQQKPGQPPKLLIYYASTRESGVPDRFTGSGSGTDFTLTISSLQAEDVAVYYCQNDYSYPFTFGSGTKLEIKR
notes: also called VL-W56Y; Kabat 50

The target of the first assay is T1, human PD-1-His (human, UniProt Q15116 25-167, limits assumed).
T1 construct: Antigen of the Octet assays; not shown: His tag
T1 sequence (Q15116 25-167 limits assumed): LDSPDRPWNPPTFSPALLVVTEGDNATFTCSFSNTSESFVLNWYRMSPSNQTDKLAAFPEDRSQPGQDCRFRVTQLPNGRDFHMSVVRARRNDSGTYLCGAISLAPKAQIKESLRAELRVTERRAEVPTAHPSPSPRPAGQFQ
Nature of the assay: Octet.
In the case of B1, binding was put at a Kd of 29 nM, the koff was found to be 0.00364 s⁻¹ and the kon was found to be 126000 M⁻¹ s⁻¹.

B2 came in with a Kd of 26.4 nM, a koff of 0.00324 s⁻¹ and a kon of 123000 M⁻¹ s⁻¹.

Molecule B3 showed a Kd of 80.1 nM, a koff of 0.00785 s⁻¹ and a kon of 98000 M⁻¹ s⁻¹.

B4 showed a Kd of 54.5 nM, a koff of 0.00596 s⁻¹ and a kon of 109000 M⁻¹ s⁻¹.

For B5, the Kd turned out to be 61.1 nM, the koff was determined as 0.00697 s⁻¹ and the kon came out at 114000 M⁻¹ s⁻¹.

Take B6: the Kd was determined as 39.8 nM, the off-rate (koff) was found to be 0.00546 s⁻¹ and the kon stood at 137000 M⁻¹ s⁻¹.

The molecule B7 returned a Kd of 23.8 nM, a koff of 0.00353 s⁻¹ and a kon of 149000 M⁻¹ s⁻¹.

B8 returned a dissociation constant Kd of 38.1 nM, a koff of 0.00455 s⁻¹ and a kon of 120000 M⁻¹ s⁻¹.

As for B9, binding was put at a Kd of 30.5 nM, the koff worked out at 0.00439 s⁻¹ and the kon was found to be 144000 M⁻¹ s⁻¹.

Regarding B10, the Kd worked out at 8.6 nM, the koff stood at 0.00135 s⁻¹ and the kon is 157000 M⁻¹ s⁻¹.

In the case of B11, the Kd was 39.7 nM, the koff was 0.00508 s⁻¹ and the on-rate constant (kon) is 128000 M⁻¹ s⁻¹.

The molecule B12 yielded a Kd of 42.1 nM, a koff of 0.00409 s⁻¹ and a kon of 97100 M⁻¹ s⁻¹.

In turn, B13 showed a Kd of 36.5 nM, a koff of 0.0049 s⁻¹ and a kon of 134000 M⁻¹ s⁻¹.

In turn, B14 registered a dissociation constant Kd of 19.9 nM, a koff of 0.00291 s⁻¹ and a kon of 146000 M⁻¹ s⁻¹.

For the next assay, the target named is T1, human PD-1-His. Nature of the assay: Octet [D00120 Figure 65H]. From the text: In particular, anti-human IgG-Fc (AHC) biosensors were used to capture the test articles and dipped into multiple concentrations of PD-1.
In turn, B15 gave a Kd of 35.3 nM, a koff of 0.00339 s⁻¹ and a kon of 96200 M⁻¹ s⁻¹.

The molecule B16 returned a Kd of 41.6 nM, a koff of 0.00418 s⁻¹ and a kon of 100000 M⁻¹ s⁻¹.

In turn, B17 yielded a Kd of 98 nM, a koff of 0.00949 s⁻¹ and an association rate constant (kon) of 96800 M⁻¹ s⁻¹.

B18 returned a Kd of 178 nM, a koff of 0.0166 s⁻¹ and a kon of 92900 M⁻¹ s⁻¹.

The values above are taken from patent US20240294593A1 (Genentech, published 2024).
